# Laboratory results as given in article doi:10.1101/2025.11.18.689095 (bioRxiv, 2025).
# Test system: biotinylated full-length Hsp90
# Assay: BLI, Tom70 mutants binding to biotinylated full-length Hsp90
# Set-up: species or system human
# Conditions: biotinylated full-length Hsp90 immobilized, Tom70 40 µM, Fig S7B
# Protocol: Biotinylated Hsp90 proteins were immobilized onto streptavidin biosensor probes, and experiments were conducted in buffer containing 20 mM sodium phosphate (pH 7), 150 mM NaCl, 1% BSA, 0.6 M sucrose, and 1 mM TCEP[68]. […] To combat heterogenous binding, dissociation curves were fit with a two-phase exponential curve. Due to the association rate (kon) being too rapid to quantify, kon values were indirectly estimated by combining koff values obtained from BLI with KD values determined by ITC ( kon=koffBLI/KDITC ). All data are corrected for non-specific binding. Error is given as the standard deviation of at least two measurements.
# Supplementary Figure 7: (A) Interacting residues between Tom70 and Hsp90EEVD peptide. (B) BLI sensorgrams of biotinylated full-length Hsp90 assayed to Tom70 mutants. WT refers to “wild-type” Tom70. All Tom70 concentrations are at 40 µM. Dotted line demarcates the beginning of the dissociation phase. (C-D) ITC thermograms and isotherms for the interaction of Tom70 to an (C) amidated Hsp90EEVD peptide and a (D) Hsp90EQVD peptide. N.D. stands for “not-detected” due to the lack of sufficient heat generated.
# (1 picture or pasted object on this page, not shown here)
row,Molecule,binding of Tom70 mutant to Hsp90
1,K118A: K118A mutation in hTom70 (protein) MNSLDRAQAAANKGNKYFKAGKYEQAIQCYTEAISLCPTEKNVDLSTFYQNRAAAFEQLQKWKEVAQDCTKAVELNPKYVKALFRRAKAHEKLDNKKECLEDVTAVCILEGFQNQQSMLLADKVLKLLGKEKAKEKYKNREPLMPSPQFIKSYFSSFTDDIISQPMLKGEKSDEDKDKEGEALEVKENSGYLKAKQYMEEENYDKIISECSKEIDAEGKYMAEALLLRATFYLLIGNANAAKPDLDKVISLKEANVKLRANALIKRGSMYMQQQQPLLSTQDFNMAADIDPQNADVYHHRGQLKILLDQVEEAVADFDECIRLRPESALAQAQKCFALYRQAYTGNNSSQIQAAMKGFEEVIKKFPRCAEGYALYAQALTDQQQFGKADEMYDKCIDLEPDNATTYVHKGLLQLQWKQDLDRGLELISKAIEIDNKCDFAYETMGTIEVQRGNMEKAIDMFNKAINLAKSEMEMAHLYSLCDAAHAQTEVAKKYGLKPPTL,eliminated binding
2,N158A: N158A mutation in hTom70 (protein) MNSLDRAQAAKNKGNKYFKAGKYEQAIQCYTEAISLCPTEKNVDLSTFYQARAAAFEQLQKWKEVAQDCTKAVELNPKYVKALFRRAKAHEKLDNKKECLEDVTAVCILEGFQNQQSMLLADKVLKLLGKEKAKEKYKNREPLMPSPQFIKSYFSSFTDDIISQPMLKGEKSDEDKDKEGEALEVKENSGYLKAKQYMEEENYDKIISECSKEIDAEGKYMAEALLLRATFYLLIGNANAAKPDLDKVISLKEANVKLRANALIKRGSMYMQQQQPLLSTQDFNMAADIDPQNADVYHHRGQLKILLDQVEEAVADFDECIRLRPESALAQAQKCFALYRQAYTGNNSSQIQAAMKGFEEVIKKFPRCAEGYALYAQALTDQQQFGKADEMYDKCIDLEPDNATTYVHKGLLQLQWKQDLDRGLELISKAIEIDNKCDFAYETMGTIEVQRGNMEKAIDMFNKAINLAKSEMEMAHLYSLCDAAHAQTEVAKKYGLKPPTL,eliminated binding
3,K188A: K188A mutation in Tom70 (protein) MNSLDRAQAAKNKGNKYFKAGKYEQAIQCYTEAISLCPTEKNVDLSTFYQNRAAAFEQLQKWKEVAQDCTKAVELNPKYVAALFRRAKAHEKLDNKKECLEDVTAVCILEGFQNQQSMLLADKVLKLLGKEKAKEKYKNREPLMPSPQFIKSYFSSFTDDIISQPMLKGEKSDEDKDKEGEALEVKENSGYLKAKQYMEEENYDKIISECSKEIDAEGKYMAEALLLRATFYLLIGNANAAKPDLDKVISLKEANVKLRANALIKRGSMYMQQQQPLLSTQDFNMAADIDPQNADVYHHRGQLKILLDQVEEAVADFDECIRLRPESALAQAQKCFALYRQAYTGNNSSQIQAAMKGFEEVIKKFPRCAEGYALYAQALTDQQQFGKADEMYDKCIDLEPDNATTYVHKGLLQLQWKQDLDRGLELISKAIEIDNKCDFAYETMGTIEVQRGNMEKAIDMFNKAINLAKSEMEMAHLYSLCDAAHAQTEVAKKYGLKPPTL,abrogated binding
4,R192A: R192A mutation in Tom70 (protein) MNSLDRAQAAKNKGNKYFKAGKYEQAIQCYTEAISLCPTEKNVDLSTFYQNRAAAFEQLQKWKEVAQDCTKAVELNPKYVKALFARAKAHEKLDNKKECLEDVTAVCILEGFQNQQSMLLADKVLKLLGKEKAKEKYKNREPLMPSPQFIKSYFSSFTDDIISQPMLKGEKSDEDKDKEGEALEVKENSGYLKAKQYMEEENYDKIISECSKEIDAEGKYMAEALLLRATFYLLIGNANAAKPDLDKVISLKEANVKLRANALIKRGSMYMQQQQPLLSTQDFNMAADIDPQNADVYHHRGQLKILLDQVEEAVADFDECIRLRPESALAQAQKCFALYRQAYTGNNSSQIQAAMKGFEEVIKKFPRCAEGYALYAQALTDQQQFGKADEMYDKCIDLEPDNATTYVHKGLLQLQWKQDLDRGLELISKAIEIDNKCDFAYETMGTIEVQRGNMEKAIDMFNKAINLAKSEMEMAHLYSLCDAAHAQTEVAKKYGLKPPTL,abrogated binding
